The text below walks through data of patent US10577406B2, “FKBP-L polypeptides and uses in angiogenesis-mediated disorders” (ALMAC DISCOVERY LIMITED, priority 2006, dated 2020).

For one assay, the system named is HMEC-1. The experiment in a line: in vitro migration assay (wound closure / wound scrape), recombinant protein or peptides added to medium. In kind it is cell-based, Human. As for the experimental part: The in vitro migration assay used in these studies is a modified version of the method described by Ashton et al (1999). HMEC-1 were plated into individual chambers on a glass slide and grown to 90% confluence overnight. The medium was removed and the monolayer wounded. The monolayer was re-supplemented with fresh medium and the required volume of recombinant full length his-tagged FKBP-L protein (SEQ ID NO: 1) was added to give the required final concentration.
The monolayers were incubated for 7 hours after exposure to recombinant FKBP-L protein and then fixed in 4% PBS buffered paraformaldehyde. The extent of “wound” closure was blindly assessed microscopically by an independent investigator and quantified using a calibrated eyepiece graticule (1 mm/100 μm graduation) at 20× magnification (Olympus BX 50). The extent of closure in the FKBP-L treated slides was compared to time matched sham treated controls and the % inhibition of wound closure compared to time matched controls calculated.
The following studies were performed to determine the effect of a full length His-tagged recombinant FKBP-L protein on the wound closure assay measured as a function of time. Again, the in vitro migration assay used in these studies is a modified version of the method described by Ashton et al (1999). HMEC-1 were plated into individual chambers on a glass slide and grown to 90% confluence overnight. The medium was removed and the monolayer wounded. The monolayer was re-supplemented with fresh medium and the required volume of full length his-tagged recombinant FKBP-L (i.e., SEQ ID NO: 1) added to give the required final concentration 750 ngml^−1.
Slides were removed at fixed time points until complete closure of the wound, then fixed in 4% PBS buffered paraformaldehyde. The extent of “wound” closure was blindly assessed microscopically by an independent investigator and quantified using a calibrated eyepiece graticule (1 mm/100 μm graduation) at 20× magnification (Olympus BX 50). The extent of closure in the FKBP-L treated slides was compared to time matched sham treated controls and the % inhibition of wound closure compared to time matched controls calculated.
The in vitro migration assay used in these studies is a modified version of the method described by Ashton et al. (1999) see supra. HMEC-1 were plated into individual chambers on a glass slide and grown to 90% confluence overnight. The medium was removed and the monolayer wounded. The monolayer was re-supplemented with fresh medium and the required volume of the following peptides was added to achieve a dose range from 10^−14-10^−6 M.
The monolayers were incubated for 7 h and then fixed in 4% PBS buffered paraformaldehyde. The extent of “wound” closure was blindly assessed microscopically by an independent investigator and quantified using a calibrated eyepiece graticule (1 mm/100 μm graduation) at 20× magnification (Olympus BX 50). The extent of closure in the FKBP-L treated slides was compared to time matched sham treated controls and the % inhibition of wound closure compared to time matched controls calculated.
The in vitro migration assay used in these studies is a modified version of the method described by Ashton et al. (1999) see supra. HMEC-1 were plated into individual chambers on a glass slide and grown to 90% confluence overnight. The medium was removed and the monolayers wounded. The monolayer was re-supplemented with fresh medium and the required volume of each peptide (i.e., peptides 1-17, SEQ ID NOS: 12-28; Table 4 below) was added to give the required final concentration (10^−14-10^−6 M).
The monolayers were incubated for 24 h and then fixed in 4% PBS buffered paraformaldehyde. The extent of “wound” closure was blindly assessed microscopically by an independent investigator and quantified using a calibrated eyepiece graticule (1 mm/100 μm graduation) at 20× magnification (Olympus BX 50). […]

In assay [1] the test system is MDA231 (breast tumor cell line; CD44 +ve). The assay is described as follows: tumor cell migration, wound closure assay, MDA231. The format is cell-based. The method, then: In these experiments, the effect of recombinant FKBP-L on tumor cell migration was assessed. The in vitro migration assay used in these studies is a modified version of the method described by Ashton et al (1999) see supra. PC3, MDA231, and HT29 tumor cells were plated into individual chambers on a glass slide and grown to 90% confluence overnight. The medium was removed and the monolayers wounded. The monolayer was re-supplemented with fresh medium and the required volume of His-tagged recombinant FKBP-L protein (SEQ ID NO: 1) was added to give the final concentrations shown. The monolayers were incubated for 24 hours and then fixed in 4% PBS buffered paraformaldehyde.
The extent of “wound” closure was blindly assessed microscopically by an independent investigator and quantified using a calibrated eyepiece graticule (1 mm/100 μm graduation) at 20× magnification (Olympus BX 50). The extent of closure in the FKBP-L treated slides was compared to time matched sham-treated controls and the percent inhibition of wound closure compared to time matched controls calculated. […]
The extent of “wound” closure was blindly assessed microscopically by an independent investigator and quantified using a calibrated eyepiece graticule (1 mm/100 μm graduation) at 20× magnification (Olympus BX 50). […]

On to “H-QIRQQPRDPPTETLELEVSPDPAS-OH [FKBP-L 24mer]”, for which the “potency compared with the full length recombinant protein on a mole/mole basis” value in the assay on HMEC-1 (wound scrape, 7 h) was “increased potency”. In assay [1] (MDA-231, 10^−14-10^−7 M, 24 h), the “effect on tumor cell migration” value is “can inhibit”.

B1: full length recombinant FKBP-L: recombinant full length his-tagged FKBP-L protein (SEQ ID NO: 1) expressed in BL21 (DE3) (protein, listed as Homo sapiens)
chain: MRGSHHHHHHGMASMTGGQQMGRDLYDDDDKDRWGSMETPPVNTIGEKDTSQPQQEWEKNLRENLDSVIQIRQQPRDPPTETLELEVSPDPASQILEHTQGAEKLVAELEGDSHKSHGSTSQMPEALQASDLWYCPDGSFVKKIVIRGHGLDKPKLGSCCRVLALGFPFGSGPPEGWTELTMGVGPWREETWGELIEKCLESMCQGEEAELQLPGHTGPPVGLTLASFTQGRDSWELETSEKEALAREERARGTELFRAGNPEGAARCYGRALRLLLTLPPPGPPERTVLHANLAACQLLLGQPQLAAQSCDRVLEREPGHLKALYRRGVAQAALGNLEKATADLKKVLAIDPKNRAAQEELGKVVIQGKNQDAGLAQGLRKMFG
modifications: His tag
B1: the “delay of 50% wound closure versus control” value with HMEC-1 (750 ngml^−1) worked out at 9 h. Also, the “time until 50% wound closure” value in the assay with HMEC-1 (750 ngml^−1, single administration, control 7 hours) amounted to 16 h. The “inhibition of HMEC-1 migration into the denuded area of the monolayer compared to time matched controls” value with HMEC-1 (750 ngml^−1, 7 hours) is listed as 60%. The “time until which the wound remained open (total wound closure)” value in the assay with HMEC-1 (750 ngml^−1, control 16 hours) is 34 h. Moreover, the “optimum concentration for inhibition of migration” value in the assay with HMEC-1 (7 hours) stood at 750 ngml^−1. For the same molecule, in the assay on HMEC-1 (FIG. 4 dose response), the “dose effective to prevent cell migration” value is given as 10^−6 M. For the same molecule, the “effect on tumor cell migration” value in assay [1] (MDA231, 24 hours) was “inhibits tumor cell migration in a dose-dependent manner”.
